Laboratory results published in patent US20120141373A1 (University of California, published 2012).
Numbering of substitutions follows the chain as printed.

T1: human MT-SP1 protease domain (human, UniProt Q9Y5Y6 615-855)
T1 construct: domain: protease domain; also called hMT-SP1; matriptase
T1 sequence (looked up): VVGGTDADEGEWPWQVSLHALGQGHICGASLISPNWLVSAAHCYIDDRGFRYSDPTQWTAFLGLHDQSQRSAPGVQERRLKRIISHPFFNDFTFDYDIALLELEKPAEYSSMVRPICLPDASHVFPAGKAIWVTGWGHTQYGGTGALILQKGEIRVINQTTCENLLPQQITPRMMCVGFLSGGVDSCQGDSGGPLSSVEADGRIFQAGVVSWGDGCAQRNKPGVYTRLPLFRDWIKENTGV

T2: epithin (mouse, UniProt P56677 615-855, limits assumed)
T2 construct: also called mouse homologue of MT-SP1; A11 (Epithin)
T2 sequence (looked up): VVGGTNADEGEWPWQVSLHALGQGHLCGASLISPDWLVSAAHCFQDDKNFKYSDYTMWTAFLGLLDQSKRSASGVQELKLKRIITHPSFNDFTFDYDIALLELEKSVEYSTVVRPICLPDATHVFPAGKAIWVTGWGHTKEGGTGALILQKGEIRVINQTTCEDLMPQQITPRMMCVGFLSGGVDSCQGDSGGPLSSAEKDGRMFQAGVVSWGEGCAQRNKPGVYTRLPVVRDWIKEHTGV

B1: E2 Fab (Fab, V domains shown)
VH: QVQLVQSGGGLVKPGGSLRLSCAASGFTFSSYAMSWVRQAPGKGLEWVSAISGSGGSTYYADSVKGRFTISRDNSKNTLYLQMSSLRAEDTAVYYCARPYLTYPQRRGPQNVSPFDNWGQGTMVTVSS
VL: DIQMTQSPSSLSASVGDRVTITCRASQGISSYLAWYQQKPGKAPKLLIYAASSLQSGVPSRFSGSGSGTDFTLTISSLQPEDFAVYYCQQHGNLPYTFGDGTKVEIKR
notes: also called anti-MT-SP1 Fab antibody E2
B2: A11 Fab (Fab, V domains shown)
VH: EVQLVQSGGGLVKPGGSLRLSCAASGFTFSSYAMSWVRQAPGKGLEWVSAISGSGGSTYYADSVKGRFTISRDNSKNTLYLQMSSLRAEDTAVYYCVKDLGIAARRFVSGAFDIWGQGTMVTVSS
VL: EIVLTQSPGTLSLSPGERATLSCRASQSVSSSYLAWYQQKPGQAPRLLIYGASTRATGIPARFSGSGSGTDFTLTINSLEPEDFAVYYCQQRSNWPPGYTFGQGTKVEIKR
notes: Human Fab from a naive phage library, VH3 heavy chain and Vkappa3 light chain; The Fab was made in E. coli for biochemical assays and in T. reesei for crystallisation; also called Fab A11; recombinant A11 Fab
B3: A11 H R100bK (Fab, V domains shown)
VH: B2 VH with R106K
VL: B2 VL
notes: also called ArgH100bLys; A11 mutant ArgH100bLys
B4: A11 H R100aA (Fab, V domains shown)
VH: B2 VH with R105A
VL: B2 VL
notes: also called ArgH100aAla; A11 mutant ArgH100aAla
B5: A11 H R100bA (Fab, V domains shown)
VH: B2 VH with R106A
VL: B2 VL
notes: also called ArgH100bAla; A11 mutant ArgH100bAla

Experiments:
[1] = target: T1, human MT-SP1 protease domain; test: steady state kinetics, probably pM (the same paragraph prints 720 µM for what Table 3 gives as 0.72 nM)
Procedure: (§1) Briefly, all reactions were carried out in 50 mM Tris, pH 8.8, 50 mM NaCl, 0.01% Tween-20 in 96-well, medium binding, flat-bottomed plate (Corning), and cleavage of substrate (Spectrazyme-tPA (hexahydrotyrosyl-Gly-Arg-pNA), American Diagnostica, Greenwich, Conn.) was monitored in a UVmax Microplate Reader (Molecular Devices Corporation, Palo Alto, Calif.). […] Reactions to determine the IC₅₀'s were carried out by incubating 0.2 nM enzyme with inhibitor for >5 hours to assure steady-state behavior of the system. […] Inhibitor activity was also measured using the chromogenic substrate Spectrafluor tPA (American diagnostica, Inc.). […] Kaleidagraph 3.6 was used to fit all graphs and equations (Synergy Software, Reading, Pa.).

epithin = target: T2, epithin; test: steady state kinetics, inhibition of epithin
[2] = target: T1, human MT-SP1 protease domain; test: steady state kinetics, tight-binding inhibition of Spectrazyme-tPA cleavage
Procedure: as §1

[3] = target: T1, human MT-SP1 protease domain; test: steady state kinetics
Procedure: as §1

Binder | Ki [1] [nM] | Ki (epithin) [nM] | Ki [2] [nM] | fold change of KI over wild-type A11 [3] [fold]
B1 | 12000 |  |  | 
B2 |  | 87 |  | 
B3 |  |  | 180 | 250
B4 |  |  | 1.5 | ~2
B5 |  |  | 180 | 250
